Data on two molecules can be found in US20250368754A1 (KANAPH THERAPEUTICS, published 2025).

One test concerns the target T1, human LTβR on A375 cells (human, UniProt P36941 31-435).
T1 construct: whole, on cells; Endogenous receptor of a human cell line; also called LTβR expressing A375 cells; LTβR expressing cell line
The test is described as follows: flow cytometry on A375 cells, serial dilution from 500 nM, anti-human IgG detection. As to the method: Specifically, the A375 cell line was prepared by suspending in a FACS buffer solution at 1×10⁵ cells/100 μL, and treated with 100 μL each of T3.01, T3.07, T3.04, and T3.18 prepared by suspending at 500 nM and diluting by serial dilution. The cells were washed twice with a FACS buffer solution. The cells were stained with an anti-human IgG antibody (Biolegend). The expression ratio of the stained cells was measured using BD LSR and analyzed using FlowJo software.

Test [1] addresses T2, recombinant human herpes virus entry mediator (HVEM) (human, UniProt Q92956 39-202).
T2 construct: neither construct is described; also called human HVEM; recombinant human HVEM protein (R&D systems)
T2 sequence (looked up): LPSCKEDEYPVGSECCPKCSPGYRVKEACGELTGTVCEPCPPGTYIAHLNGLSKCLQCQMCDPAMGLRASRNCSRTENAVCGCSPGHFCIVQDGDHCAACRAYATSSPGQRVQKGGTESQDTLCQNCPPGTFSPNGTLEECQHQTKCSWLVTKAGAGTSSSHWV
Briefly: SPR, human HVEM immobilised on CM5, fusion protein as analyte, 1:1 binding model. As to the method:
(§1) Specifically, the surface of the CM5 chip was activated with a 1:1 mixture of […], and 5 to 6 μg/mL of human HVEM was immobilized for 60 seconds at a rate of 10 μL/min. The remaining active ester groups were blocked with 1 M ethanolamine. T3.01, T3.07, T3.09, T3.14, and T3.18 were each diluted to 100 nM in 1×HBS-EP+buffer solution and diluted by serial dilution. The diluted fusion proteins were reacted at a rate of 30 μL/min. The association and dissociation times were 180 seconds and 400 seconds, respectively. After the dissociation step, stabilization was performed for 60 seconds, and then the regeneration step was performed for 30 seconds with a 10 mM glycine pH 1.5 solution at a rate of 30 μL/min.

The target of a further test is T3, human DcR3 (human, UniProt O95407 30-300).
T3 construct: also called LIGHT receptor DcR3
T3 sequence (looked up): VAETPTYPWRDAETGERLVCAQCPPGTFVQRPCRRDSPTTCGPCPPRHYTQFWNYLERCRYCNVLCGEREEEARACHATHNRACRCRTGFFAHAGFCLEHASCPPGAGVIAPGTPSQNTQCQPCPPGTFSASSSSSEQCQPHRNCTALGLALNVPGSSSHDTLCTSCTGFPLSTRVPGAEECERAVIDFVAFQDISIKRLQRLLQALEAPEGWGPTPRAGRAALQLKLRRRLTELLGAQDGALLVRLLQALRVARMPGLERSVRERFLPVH
Briefly: SPR, human DcR3 immobilised on CM5, fusion protein as analyte, 1:1 binding model. As to the method:
as §1, with “DcR3” for “HVEM”, “50 nM or 200” for “100”
A general note: In SPR one partner is held on a chip, and binding of the other changes the refractive index at the surface.

Test [2] concerns the target T2, recombinant human herpes virus entry …. The test is described as follows: SPR, human HVEM immobilised on the chip (title: PRO096; 6ug/ml human HVEM pH5.5), T3.14 as analyte 0.78125-100 nM. As to the method: as §1

T1 sequence (P36941 31-435): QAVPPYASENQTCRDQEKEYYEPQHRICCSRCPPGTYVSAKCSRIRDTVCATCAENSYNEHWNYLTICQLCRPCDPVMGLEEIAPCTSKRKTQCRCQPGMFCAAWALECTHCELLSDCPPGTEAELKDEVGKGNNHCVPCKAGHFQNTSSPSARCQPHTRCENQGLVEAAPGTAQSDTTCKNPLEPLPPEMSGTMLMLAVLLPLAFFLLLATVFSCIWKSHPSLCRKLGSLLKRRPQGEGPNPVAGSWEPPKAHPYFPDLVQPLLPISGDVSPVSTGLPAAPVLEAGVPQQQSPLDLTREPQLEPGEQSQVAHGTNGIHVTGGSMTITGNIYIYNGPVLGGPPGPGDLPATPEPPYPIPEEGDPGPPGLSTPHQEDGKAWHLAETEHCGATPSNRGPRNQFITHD

B1: T3.01 (anti-hu FAP/hu scLIGHT3, hu IgG1 DANG) (bispecific antibody)
heavy: QVQLVQSGAEVKKPGASVKVSCKTSRYTFTEYTIHWVRQAPGQRLEWIGGINPNNGIPNYNQKFKGRVTITVDTSASTAYMELSSLRSEDTAVYYCARRRIAYGYDEGHAMDYWGQGTLVTVSSASTKGPSVFPLAPSSKSTSGGTAALGCLVKDYFPEPVTVSWNSGALTSGVHTFPAVLQSSGLYSLSSVVTVPSSSLGTQTYICNVNHKPSNTKVDKKVEPKSCDKTHTCPPCPAPELLGGPSVFLFPPKPKDTLMISRTPEVTCVVVAVSHEDPEVKFNWYVDGVEVHNAKTKPREEQYGSTYRVVSVLTVLHQDWLNGKEYKCKVSNKALPAPIEKTISKAKGQPREPQVYTLPPSRDELTKNQVSLWCLVKGFYPSDIAVEWESNGQPENNYKTTPPVLDSDGSFFLYSKLTVDKSRWQQGNVFSCSVMHEALHNHYTQKSLSLSPGK
light: not shown
chain: not shown
notes: Knob-into-hole heterodimer: one anti-FAP Fab arm and one single-chain human LIGHT (91-240) homotrimer arm
One may read the Kd as the concentration at which binding is half-saturated. By koff is commonly meant the first-order rate constant of dissociation. What is called kon is the second-order rate constant of association. B1: the “percent of cells bound” value with human LTβR on A375 cells is no less than 96%. For the same molecule, in test [1], the dissociation constant Kd was determined as 4.24 nM, the koff worked out at 0.00119 s⁻¹ and the kon is 281000 M⁻¹ s⁻¹. In addition, in the test with human DcR3, binding was characterised by a dissociation constant (Kd) of 0.357 nM, the off-rate constant (koff) was determined as 0.000236 s⁻¹ and the on-rate constant (kon) is 662000 M⁻¹ s⁻¹.

B2: T3.14 (anti-hu FAP/hu scLIGHT-LTb2, hu IgG1 DANG) (bispecific antibody)
heavy: B1 heavy
light: not shown
chain: not shown
notes: Knob-into-hole; single-chain heterotrimer of one human LIGHT and two human lymphotoxin beta (87-243)
Regarding B2, the binding result in test [2] was “no binding (tested: 100 nM)”. Also, in the test with human DcR3, the Kd turned out to be 9.72 nM, the koff stood at 0.00198 s⁻¹ and the kon was found to be 204000 M⁻¹ s⁻¹.
